Measurements: the DeepSol protein solubility set

Assay: soluble on expression in E. coli; label from the status in PepcDB or PDB records

Row | Sequence | soluble on expression in E. coli
1 | MSLHLSNVILHQLCKNDQDELVVKLRPASLENDASTENLVAELHRVFHSKAGKGFGSFQSDSEFQFWLQEMRKGERDFYDFSQISANRLKEELIKYPFADEGILVFAEYQSLATDYLFIGILPMNQSLKVTEGLDISATDYLDITKMDIAARIDLSSYETDKESNRYLQYIKGRVGRKVADFFLDFLQADIGLDTKQQNLVLMQAVDDFCADSKLEKQEVNEYKKQVYNYCNEQIKSGEEVQISELSGELPPSQDGTSFMDFTKEQGYELEESFPGDRSTVRKLTKYVGAGGGLNISFDSLLLGERIFYDPETDTLTIKGTPPNLKDQLSRNLEHHHHHH | soluble
2 | MSLIAVLRINHRPFRDKRITTHVALTARAFGASSILVDEKDETLEQTINKVVENFGGNFFIKSGVDWKREFRNFKGIRVHLTMYGRPLEDVVKEIRESKKDVMILVGSEKVPFEAYEIADYNVSVTNQPISEVSALAIFLDRFYDGEELNWRFTGKINVYPSERGKKVKIIPDEQGCLDLLYKYGASDYLINHVKSVKELAVAIAKKTNADINLVTAGALLHDIGRTQVQGITHAVVGADILRREGIDDRVVSIVEKHIGAGIQSEEAVKLGLPPDNYVPETIEEMIVAHADNLFAGDKRLKLQQVVDNYRKKGLEDAAERIAKLHKFLSTVIGQDMDEIEGHHHHHH | soluble
3 | MAHHHHHHQTQTPSQLLQSFTTRTTDYNQLINSVGINAITPQQIQRIEKLSGKAPHHYLSRGVFLAEKSLDKFLDDVEAKKPTFIFIQKYPQKEVALEEYITLEFARYLQDAFNIQVIIQILDDIKVLNREATINEASKMSNDLMKYILAFGFNEDKTFIYTDYQYFGKMYRTISLVEKATAYNVVQPFFNFEYSDNIGKLASPSIMTASMFSQSYSHFFSSPARCLVLDSIKNVQFHSIIDQIATTLNFIQPTVLFHKMVPLLSGVTKFDIPSDHNSILLSDNAKQVERKINKLAFSGGRNTTEEHKKLGGQCDIDVSFQLLNIFSSDNAQVKDVEEKYSKGELLSGELKKIVSASMKDFIVAYDAKKKPITTAYLKAYISKTKF | soluble
4 | TKEHRAIARKTASESFVLLKNEGVLPLSKKGTIAVVGPLANTRSNMPGTWSVAAVLDNAPSLVEGLREVVGDRAKVVTAKGSNLIGDADYEKRATMFGRELHRDNRTDRELLDEALKVAAGADVIVAALGESSEMSGESSSRTNLEMPDVQRALLQELLKTGKSVVLVLFTGRPLVLTWEEEHVPAILNVWFGGSEAAYAISDVLFGDVNPSGKLTATFPQNVGQIPLFYNHKNTGRPLQEGRWFEKFRSNYLDVSNEPLYPFGYGL | not soluble
5 | MPHWLVIDLEATTAEGGWPLEEMEIIEIGATLVAAADARELDHFQRFVRPVRRPLLTHFCRDLTHISQANVDGAAHLNTVWEAFERWLAQHRPRLAGWASWGDYDRRQLEQEWRQHGLTSQLSEVPHVNLKQRFGEVRQLPRPVGLNAALQLAGMSFQGQQHRALEDARNTARLLPLVLPVEHLEHHHHHH | soluble
6 | MNEILKTEDEVVRWSVKKINDDTTLIEFELKRDLVPEDLKKINPPDAVKNKFANTFIVLSGRGPIWLYGFLIHFYHPTKGIGVFDPRLGGAVVVSSHSPNKKVGDVIKWEG | not soluble
7 | MKEYRLTDWLPTTKKEVELRGWDELDVILFSGDAYVDHPSFGAAVIGRILEAEGLKVAIIPQPNWRDDLRDFRKLGRPRLFFGISAGSMDSMVNKYTANKRLRSEDAYTPDGRPDMRPEYPSIVYSQILKRLYPDVPVILGSIEASLRRLSHYDYWQDKVQKSILCDSGADLLIYGMGEKPIVELTRKMKELLPAEDASLTAGELKKIAGTIPQTAYLCRATEWTPAADDIQLYSHEECLADKKKQASNFRHIEEESNKYAASRITQEVDNKVVVVNPPYPPMSQEELDHSYDLPYTRLPHPKYKGKRIPAYDMIKFSVNIHRGCFGGCAFCTISAHQGKFIVSRSKKSILNEVKEVMQLPDFKGYLSDLGGPSANMYQMKGKDEAICKKCKRPSCIHPKVCPNLNSDHCPLLDIYKAVDAIPGIKKSFIGSGVRYDLLLHQSKDAATNRSTAEYTRELIVNHVSGRLKVAPEHTSDRVLSIMRKPSFEQFETFKKIFDRINREENLRQQLIPYFISSHPGCKEEDMAELAVITKRLDFHLEQVQDFTPTPMTVATEAWYSGFHPYTLEPVFSAKTQREKLAQRQFFFWYKPEERKNILNELRRIGRQDLIDKLYGKRNK | not soluble
8 | MDEGDKKSPISQVHEIGIKRNMTVHFKVLREEGPAHMKNFITACIVGSIVTEGEGNGKKVSKKRAAEKMLVELQKL | soluble
9 | MSIESKIRQLIDQNGYITCDVLMQEVLNLNPTSYYKQVKSLANEGDFVTAPEISQLFGEIIGLWCIREWQRIGCPKSLSLVELGPGRGLLMRDLLRTAKLVPEFYKALSIELIEINKNFIAYQKANLQDINLPISHQSFVEDIPKKPTIIIANEFFDAIPIKQYIKVKELWYERIFVVQPVDERIKYDKISVNKQLQEYLLCTHIEAKDGAVLEESYKSIEIIKFIAQHLKRLSGSGLIIDYGYDIAPNGRTRYQYNQTLQAVKNHKYCPILENLGEADLSAHVDFYALKTVAKNSKINVIDTISQRDFLIENGILLRKQTLQDKLNDRHLAKFAYREEFKGDTKRSTAAYTLVREDASIGSTYKLPLEVEFGKMSEQAQIIERQVERLISPKQMGELFKVLQIMN | not soluble
10 | MGSDKIHHHHHHMRTPTCDITTHERWFGAFTAPYLEEGPEHVGPVRLKIEHTHHVLSNARSIVDSEDFSPLVQRAALLAALYHDTGRFPQYRRWRTFSDPRSVNHALLGGRTLREAGALDDEPVEVRRLVLGAVVMHNRFRVPSGIPDDARTVTDVVRDADKLDIFRVMAPHLAPGAERDKVVVLHVEDAPGKWSPVIVADVLAGRVASYADLRYVNDFRLLLGTWVRDLRFPASRRMLAASGLVENILSALPASDDIARARTRILSDLADAARGRGGA | not soluble
11 | MNSPGVSANFFIPLSFDATSLIKYKLSDDLLARVAASGSLRSSSCRSAVWRLVLRCLPYETSDWEISLSRSRNLYRAHKENHLIDPHDTKFSQDPEFNNPLASIEQNPWNTFFEDNDLRDIIGKDVSRTFPEIEFFQNTSIRQMMSDILLVYAKEHPFVNYRQGMHEILAPLIFVIYSDNEAFQHAKENDELKMLTVEEEDILNCLFCKEYLEQDSYNLFCSVMLEVSRWYEEPTVTESPKRPIPKEPYMRVQDSAPASRLMEDLIDIGNLLHEIDPTLAKHLSTLDIPPQLYGIRWLRLLFGRELPLHDLLFLWDVLLIDRPIAPLAKCMFVSLLVQIRHLLLSSDYGGCLQYLMRYPPIADIDSFVKLARHYRNPKKNAKPMIKSNNFSHITVAGSSHPNRTQRPQRPPAAVNSKNDGAESPSTILALAPVFQKVKNTIRDRSNTVSGPSSPRRSNEPLREPLRTPQKKDNWANEVQMMEEQVSTLQTRLNEQDMMCCQVSKALEIYAEDVRNAKSSELCAVLSQNLLELSKTLMSIKTVPVGTSPPKHSRNGISDIQPKPRDSQPIRQHNEMVDMATKRPPL | not soluble
12 | SQHFGRPRTTHEFLFGALAELVDNARDADATRIDIYAERREDLRGGFMLCFLDDGAGMDPSDAASVIQFGKSAKRTPESTQIGQYGNGLKSGSMRIGKDFILFTKKEDTMTCLFLSRTFHEEEGIDEVIVPLPTWNARTREPVTDNVEKFAIETELIYKYSPFRTEEEVMTQFMKIPGDSGTLVIIFNLKLMDNGEPELDIISNPRDIQMAETSPEGTKPERRSFRAYAAVLYIDPRMRIFIHGHKVQTKRLSCCLYKPRMYKYTSSRFKTRAEQEVKKAEHVARIAEEKAREAESKARTLEVRLGGDLTRDSRVMLRQVQNRAITLRREADVKKRIKEAKQRALKEPKELNFVFGVNIEHRDLDGMFIYNCSRLIKMYEKVGPQLEGGMACGGVVGVVDVPYLVLEPTHNKQDFADAKEYRHLLRAMGEHLAQYWKDIAIAQRGIIKFWDEFGYLSANWNQPPSSELRYKRRRAMEIPTTIQCDLCLKWRTLPFQLSSVEKDYPDTWVCSMNPDPEQDRCEASEQKQKVPLGTFRKDMKTQEEKQKQLTEKIRQQQEKLEALQKTTPIRSQADLKKLPLEVTTRPSTEEPVRRPQRPRSPPLPAVIRNAPSRPPSLPTPRPASQPRKAPVISSTPKLPALAAREEASTSRLLQPPEAPRKPANTLVKTASRPAPLVQQLSPSLLPNSKSPREVPSPKVIKTPVVKKTESPIKLSPATPSRKRSVAVSDEEEVEEEAERRKERCKRGRFVVKEEKKDSNELSDSAGEEDSADLKRAQKDKGLHVEVRVNREWYTGRVTAVEVGKHVVRWKVKFDYVPTDTTPRDRWVEKGSEDVRLMKPPSPEHQSLDTQQEGGEEEVGPVAQQAIAVAEPSTSECLRIEPDTTALSTNHETIDLLVQILRNCLRYFLPPSFPISKKQLSAMNSDELISFPLKEYFKQYEVGLQNLCNSYQSRADSRAKASEESLRTSERKLRETEEKLQKLRTNIVALLQKVQEDIDINTDDELDAYIEDLITKGD | soluble
13 | MTHLLETKNLSVSFGEHHVIKDVNLIVQKGKLISIIGPNGAGKTTLFNLLSGQISPTKGEVYFKGQEITKLSISDRTRLGIGRSFQLTNIFPELTVLENVRLSVQSFVQDYYSFFPSSAKFKQQVGEARRFLKTVLLQEKEHVLAKDLAHGEKRKLELAMLLALKTDVLLLDEPTAGISVEEVPAILQVIENIKKHPESTIVLIEHKMDMVLGLSDHLIVLFHGELLAEGMPEEIMKDERVQSAYLGGLYSGTITSE | not soluble
14 | MKESLKDRIRLWKRLYVNAFENALNAIPNVKGVLLAYNTNIDAIKYLDADDLEKRVTEKGKEKVFEIIENPPEKISSIEELLGGILRSIKLGKAMEWFVESEEVRRYLREWGWDELRIGGQAGIMANLLGGVYRIPTIVHVPQNPKLQAELFVDGPIYVPVFEGNKLKLVHPKDAIAEEEELIHYIYEFPRGFQVFDVQAPRENRFIANADDYNARVYMRREFREGFEEITRNVELAIISGLQVLKEYYPDGTTYKDVLDRVESHLNILNRYNVKSHFEFAYTANRRVREALVELLPKFTSVGLNEVELASIMEIIGDEELAKEVLEGHIFSVIDAMNVLMDETGIERIHFHTYGYYLALTQYRGEEVRDALLFASLAAAAKAMKGNLERIEQIRDALSVPTNERAIVLEEELEKEFTEFENGLIDMVDRQLAFVPTKIVASPKSTVGIGDTISSSAFVSEFGMRKR | soluble
15 | MGSSHHHHHHSSGRENLYFQGHMFFTDWEGPWILTDFALELCMAVFNNARFFSNLSEYDDYLAYEVRREGYEAGYTLKLLTPFLAAAGVKNRDVERIAELSAKFVPDAEKAMATLQERWTPVVISTSYTQYLRRTASMIGVRGELHGTEVDFDSIAVPEGLREELLSIIDVIASLSGEELFRKLDELFSRSEVRKIVESVKAVGAGEKAKIMRGYCESKGIDFPVVVGDSISDYKMFEAARGLGGVAIAFNGNEYALKHADVVIISPTAMSEAKVIELFMERKERAFEVLSAVSIPETEIYIMENSDFGEVLEKSKRMRVRLRGLAGELGGS | soluble
16 | MLLSRICRFRMLTRFTRLRPILQLRYLAQNSHIEEEYFEELEPTGIISSHETSQEPPKRTGFRSQNLSEDADFVENVVGALTDQRAKDVFVVKSEETEMTPYTHKIICSAFNSRQASAISENLRSLLKIDGVSNGSMSHARRSTKRSNGWYVSEVERVQVHVMSEECREKYDLEAIWAGDDRILDEIDEEKQKILLPPRR | not soluble
17 | QALIKEARLTPKPGLVDSTNNGSHQDMSLSTFEQSAIALRPFFTQFVLMGIETTNLPDSHILSKIRPLGLQAEQAMFVATNQVNTHKGAIFAFGLVCTALGRHFSRWQNKMMSSPSFEISQDTTGISLISETVARFTQGITDELKNYSKNQPLTAGITLYQQYGFTGARGEAEKGFPLVQQAVVFILSQAESEMRWYWALLYLMANNNDTNIVHRGGINGLQFIQDEAHKRLGNAKNLQNANALMASLREFDDDCIARNLSPGGSADLLALTIFFLSLLYC | not soluble
18 | MNRVYVGTVSAVTDIGVFVNLNKRLRGLIHRRNLGNNRFSEDEEILVQVSGIGLSGEIDLKPVKMDGYKVVEISKEVGRVEIAELENLEHHHHHH | not soluble
